{"source": "patent US20260022179A1", "about": "(CHINA MEDICAL UNIVERSITY, published 2026)", "key": {"[1]": {"target": "T1, recombinant human EphA10 extracellular domain protein (Glu34-Ala565), transcript variant 3, fused with … (human, UniProt Q5JZY3 34-565)", "T1 construct": "range 34-565; Commercial protein used for panning and the screening ELISA; also called EPHA10-369H (Creative Biomart); not shown: C-terminal DDK/His tag", "T1 sequence (looked up)": "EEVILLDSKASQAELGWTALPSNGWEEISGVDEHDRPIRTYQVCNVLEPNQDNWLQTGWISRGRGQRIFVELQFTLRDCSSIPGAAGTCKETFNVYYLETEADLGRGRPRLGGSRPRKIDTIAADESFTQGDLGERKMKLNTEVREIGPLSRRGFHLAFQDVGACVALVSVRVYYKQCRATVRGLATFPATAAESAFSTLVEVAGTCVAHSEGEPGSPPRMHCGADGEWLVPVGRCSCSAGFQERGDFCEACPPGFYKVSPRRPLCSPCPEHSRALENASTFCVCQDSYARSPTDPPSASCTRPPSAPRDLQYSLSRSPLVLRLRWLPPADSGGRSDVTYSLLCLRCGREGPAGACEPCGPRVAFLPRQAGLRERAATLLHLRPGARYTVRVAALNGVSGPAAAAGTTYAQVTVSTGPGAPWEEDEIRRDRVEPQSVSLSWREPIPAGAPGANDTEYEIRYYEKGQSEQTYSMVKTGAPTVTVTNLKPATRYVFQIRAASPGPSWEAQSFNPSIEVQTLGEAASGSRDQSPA", "experiment": "ELISA screen of phage display clones after panning on the recombinant protein", "from_the_text": "(§1) A human B cell-derived scFv phage display library (Creative BioLabs, USA) was used to pan against the recombinant human EphA10 extracellular domain protein (Glu34-Ala565), transcript variant 3, fused with DDK/His tag at C-terminal (Creative Biomart, USA, Catalog no. EPHA10-369H). Positive clones were screened using ELISA. A unique CMU #5 were identified by DNA sequencing. The binding specificity of the unique clones was confirmed by FACS using full-length human EphA 10-expressing NIH 3T3 cells."}, "[2]": {"target": "T2, full-length human EphA10 expressed on NIH 3T3 cells (human, UniProt Q5JZY3 34-1008)", "T2 construct": "whole, on cells; also called full-length human EphA 10-expressing NIH 3T3 cells", "T2 sequence (looked up)": "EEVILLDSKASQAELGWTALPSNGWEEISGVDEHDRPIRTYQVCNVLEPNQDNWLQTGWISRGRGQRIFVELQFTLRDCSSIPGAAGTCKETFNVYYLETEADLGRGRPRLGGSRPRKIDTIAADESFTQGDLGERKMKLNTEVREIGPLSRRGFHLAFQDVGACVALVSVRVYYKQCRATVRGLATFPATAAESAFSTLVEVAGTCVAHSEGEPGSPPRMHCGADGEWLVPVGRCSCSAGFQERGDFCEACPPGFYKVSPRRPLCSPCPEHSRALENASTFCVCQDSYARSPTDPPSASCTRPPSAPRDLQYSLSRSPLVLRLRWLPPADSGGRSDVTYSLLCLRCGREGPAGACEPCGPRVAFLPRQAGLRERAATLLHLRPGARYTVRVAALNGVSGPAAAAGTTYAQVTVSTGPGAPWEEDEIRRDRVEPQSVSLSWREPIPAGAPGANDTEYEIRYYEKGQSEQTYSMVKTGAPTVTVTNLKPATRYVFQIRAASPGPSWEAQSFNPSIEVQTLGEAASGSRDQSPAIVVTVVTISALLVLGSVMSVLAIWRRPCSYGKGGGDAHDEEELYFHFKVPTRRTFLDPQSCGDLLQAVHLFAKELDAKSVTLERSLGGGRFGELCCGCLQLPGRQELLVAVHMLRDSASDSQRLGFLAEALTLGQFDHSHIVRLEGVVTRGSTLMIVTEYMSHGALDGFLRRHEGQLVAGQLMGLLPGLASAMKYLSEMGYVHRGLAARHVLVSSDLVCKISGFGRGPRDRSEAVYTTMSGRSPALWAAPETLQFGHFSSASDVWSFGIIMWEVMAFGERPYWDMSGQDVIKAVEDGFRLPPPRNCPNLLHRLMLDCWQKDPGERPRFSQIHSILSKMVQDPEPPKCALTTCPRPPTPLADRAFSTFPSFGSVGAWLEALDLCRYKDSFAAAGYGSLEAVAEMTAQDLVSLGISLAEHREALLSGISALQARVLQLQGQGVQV", "experiment": "FACS on transfected NIH 3T3 cells", "from_the_text": "as §1"}}, "data": [{"binder": "CMU #5 scFv (clone from the human B cell-derived scFv phage display library) (scFv, This is the clone as screened after panning) scFv: EVQLVQSGGGVVQPGGSLRLSCAASGFTFDDYAMHWVRQAPGKGLEWVAVISYDGSNKYYADSVKGRFTISRDNSKNTLYLQMNSLRAEDTAVYYCARDGLPAFDIWGKGTLVTVSSGGGGSGGGGSGGGGSEIVLTQSPATLSVSPGERAILSCRASQSVRSNLAWYQQKPGQPPRLVIYDASSRATGIPARFSGSGSGTDFTLTISSLEPEDFAAYYCQQYGSSQLTFGGGTKLEIKR", "values": [{"measurement": "binding result", "setting": "[1]", "result": "binds"}, {"measurement": "binding result", "setting": "[2]", "result": "binds"}]}]}
